Assay results reported in patent publication US20240018502A1.

Target: plasma purified human complement protein C3 (human) (UniProt P01024)
Assay: cell-based or functional assay

plasma purified human complement protein C3 (human), sequence (P01024 23-667, chain 1 of 2): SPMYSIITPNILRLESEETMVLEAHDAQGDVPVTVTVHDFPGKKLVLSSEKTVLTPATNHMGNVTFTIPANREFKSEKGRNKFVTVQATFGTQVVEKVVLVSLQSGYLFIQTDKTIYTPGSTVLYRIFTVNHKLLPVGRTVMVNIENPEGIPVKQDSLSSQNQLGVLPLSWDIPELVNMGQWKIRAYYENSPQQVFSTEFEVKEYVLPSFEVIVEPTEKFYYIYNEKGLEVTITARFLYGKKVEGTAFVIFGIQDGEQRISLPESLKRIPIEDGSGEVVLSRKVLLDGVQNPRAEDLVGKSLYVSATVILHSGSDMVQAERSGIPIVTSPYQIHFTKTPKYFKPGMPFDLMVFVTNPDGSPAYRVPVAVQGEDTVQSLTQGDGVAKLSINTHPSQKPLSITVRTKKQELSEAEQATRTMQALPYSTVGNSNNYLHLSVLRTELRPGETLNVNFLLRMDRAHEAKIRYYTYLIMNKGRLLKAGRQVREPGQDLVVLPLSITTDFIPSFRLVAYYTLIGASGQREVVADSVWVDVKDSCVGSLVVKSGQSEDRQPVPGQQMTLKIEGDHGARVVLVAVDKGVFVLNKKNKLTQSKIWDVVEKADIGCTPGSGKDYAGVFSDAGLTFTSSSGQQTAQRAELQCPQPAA
plasma purified human complement protein C3 (human), sequence (P01024 672-1663, chain 2 of 2): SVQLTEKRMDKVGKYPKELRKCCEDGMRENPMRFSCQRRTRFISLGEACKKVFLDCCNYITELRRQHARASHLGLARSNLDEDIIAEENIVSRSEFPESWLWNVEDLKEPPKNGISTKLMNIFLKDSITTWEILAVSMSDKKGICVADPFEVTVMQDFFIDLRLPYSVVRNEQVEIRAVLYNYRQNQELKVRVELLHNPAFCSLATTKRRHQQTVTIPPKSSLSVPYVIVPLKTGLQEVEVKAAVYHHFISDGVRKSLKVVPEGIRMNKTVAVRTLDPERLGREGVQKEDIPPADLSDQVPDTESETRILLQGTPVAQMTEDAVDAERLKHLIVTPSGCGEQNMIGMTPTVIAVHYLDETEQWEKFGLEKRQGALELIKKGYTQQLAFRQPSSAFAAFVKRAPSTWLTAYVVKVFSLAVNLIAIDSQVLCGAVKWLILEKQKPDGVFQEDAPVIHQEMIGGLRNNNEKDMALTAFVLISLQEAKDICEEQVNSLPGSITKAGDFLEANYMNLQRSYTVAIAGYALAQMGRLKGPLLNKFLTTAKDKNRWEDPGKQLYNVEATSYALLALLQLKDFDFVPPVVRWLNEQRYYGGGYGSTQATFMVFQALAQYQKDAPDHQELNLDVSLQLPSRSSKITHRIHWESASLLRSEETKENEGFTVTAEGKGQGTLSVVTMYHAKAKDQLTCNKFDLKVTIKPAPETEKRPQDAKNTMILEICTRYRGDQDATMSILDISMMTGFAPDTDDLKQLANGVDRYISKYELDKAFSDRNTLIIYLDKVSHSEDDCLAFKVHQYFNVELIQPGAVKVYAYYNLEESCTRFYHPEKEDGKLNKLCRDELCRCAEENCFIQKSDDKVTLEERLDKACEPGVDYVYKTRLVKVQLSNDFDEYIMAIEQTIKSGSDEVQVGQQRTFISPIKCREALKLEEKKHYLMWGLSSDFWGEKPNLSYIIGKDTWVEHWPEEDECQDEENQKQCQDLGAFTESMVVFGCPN

| Binder | EC50 hC3 cleavage | EC50 of hC3 cleavage |
| --- | --- | --- |
| MTSP-1 protease domain I41G/F97E/F99L/C122S/Q192A (enzyme) VVGGTDADEGEWPWQVSLHALGQGHGCGASLISPNWLVSAAHCYIDDRGFRYSDPTQWTAFLGLHDQSQRSAPGVQERRLKRIISHPFFNDETLDYDIALLELEKPAEYSSMVRPISLPDASHVFPAGKAIWVTGWGHTQYGGTGALILQKGEIRVINQTTCENLLPQQITPRMMCVGFLSGGVDSCAGDSGGPLSSVEADGRIFQAGVVSWGDGCAQRNKPGVYTRLPLFRDWIKENTGV | 30.1 nM | – |
| MTSP-1 protease domain I41A/F97W/T98S/F99L/C122S/Q192A (enzyme) VVGGTDADEGEWPWQVSLHALGQGHACGASLISPNWLVSAAHCYIDDRGFRYSDPTQWTAFLGLHDQSQRSAPGVQERRLKRIISHPFFNDWSLDYDIALLELEKPAEYSSMVRPISLPDASHVFPAGKAIWVTGWGHTQYGGTGALILQKGEIRVINQTTCENLLPQQITPRMMCVGFLSGGVDSCAGDSGGPLSSVEADGRIFQAGVVSWGDGCAQRNKPGVYTRLPLFRDWIKENTGV | 27 nM | – |
| MTSP-1 protease domain I41G/F97L/F99L/C122S/Q192S (enzyme) VVGGTDADEGEWPWQVSLHALGQGHGCGASLISPNWLVSAAHCYIDDRGFRYSDPTQWTAFLGLHDQSQRSAPGVQERRLKRIISHPFFNDLTLDYDIALLELEKPAEYSSMVRPISLPDASHVFPAGKAIWVTGWGHTQYGGTGALILQKGEIRVINQTTCENLLPQQITPRMMCVGFLSGGVDSCSGDSGGPLSSVEADGRIFQAGVVSWGDGCAQRNKPGVYTRLPLFRDWIKENTGV | 41.4 nM | – |
| MTSP-1 protease domain I41L/N95D/D96T/F97W/F99L/C122S/Q192A (enzyme) VVGGTDADEGEWPWQVSLHALGQGHLCGASLISPNWLVSAAHCYIDDRGFRYSDPTQWTAFLGLHDQSQRSAPGVQERRLKRIISHPFFDTWTLDYDIALLELEKPAEYSSMVRPISLPDASHVFPAGKAIWVTGWGHTQYGGTGALILQKGEIRVINQTTCENLLPQQITPRMMCVGFLSGGVDSCAGDSGGPLSSVEADGRIFQAGVVSWGDGCAQRNKPGVYTRLPLFRDWIKENTGV | 62.6 nM | – |
| MTSP-1 protease domain I41A/Y60gW/N95D/D96F/F97G/F99L/C122S/Q175H/Q192A (enzyme) VVGGTDADEGEWPWQVSLHALGQGHACGASLISPNWLVSAAHCYIDDRGFRWSDPTQWTAFLGLHDQSQRSAPGVQERRLKRIISHPFFDFGTLDYDIALLELEKPAEYSSMVRPISLPDASHVFPAGKAIWVTGWGHTQYGGTGALILQKGEIRVINQTTCENLLPQHITPRMMCVGFLSGGVDSCAGDSGGPLSSVEADGRIFQAGVVSWGDGCAQRNKPGVYTRLPLFRDWIKENTGV | 17.5 nM | – |
| MTSP-1 protease domain I41A/Y60gW/F99L/C122S/Q175T/Q192A (enzyme) VVGGTDADEGEWPWQVSLHALGQGHACGASLISPNWLVSAAHCYIDDRGFRWSDPTQWTAFLGLHDQSQRSAPGVQERRLKRIISHPFFNDFTLDYDIALLELEKPAEYSSMVRPISLPDASHVFPAGKAIWVTGWGHTQYGGTGALILQKGEIRVINQTTCENLLPQTITPRMMCVGFLSGGVDSCAGDSGGPLSSVEADGRIFQAGVVSWGDGCAQRNKPGVYTRLPLFRDWIKENTGV | 17.6 nM | – |
| MTSP-1 protease domain A35T/I41S/Y59F/ins97aV/C122S/Y146F/V183A/Q192G/R235H (enzyme) VVGGTDADEGEWPWQVSLHTLGQGHSCGASLISPNWLVSAAHCFIDDRGFRYSDPTQWTAFLGLHDQSQRSAPGVQERRLKRIISHPFFNDFVTFDYDIALLELEKPAEYSSMVRPISLPDASHVFPAGKAIWVTGWGHTQFGGTGALILQKGEIRVINQTTCENLLPQQITPRMMCAGFLSGGVDSCGGDSGGPLSSVEADGRIFQAGVVSWGDGCAQRNKPGVYTRLPLFHDWIKENTGV | 18.4 nM | – |
| MTSP-1 protease domain I41A/F97G/ins97aV/T98E/C122S (enzyme) VVGGTDADEGEWPWQVSLHALGQGHACGASLISPNWLVSAAHCYIDDRGFRYSDPTQWTAFLGLHDQSQRSAPGVQERRLKRIISHPFFNDGVEFDYDIALLELEKPAEYSSMVRPISLPDASHVFPAGKAIWVTGWGHTQYGGTGALILQKGEIRVINQTTCENLLPQQITPRMMCVGFLSGGVDSCQGDSGGPLSSVEADGRIFQAGVVSWGDGCAQRNKPGVYTRLPLFRDWIKENTGV | 18.1 nM | – |
| MTSP-1 Q38H/I41S/D60bT/F60eS/Y60gW/D96K/F97G/ins97aV/T98P/F99L/C122S/Q175L/Q192D (enzyme) VVGGTDADEGEWPWQVSLHALGHGHSCGASLISPNWLVSAAHCYIDTRGSRWSDPTQWTAFLGLHDQSQRSAPGVQERRLKRIISHPFFNKGVPLDYDIALLELEKPAEYSSMVRPISLPDASHVFPAGKAIWVTGWGHTQYGGTGALILQKGEIRVINQTTCENLLPQLITPRMMCVGFLSGGVDSCDGDSGGPLSSVEADGRIFQAGVVSWGDGCAQRNKPGVYTRLPLFRDWIKENTGV | – | 5.25 nM |
| MTSP-1 protease domain I41A/F97S/ins97aA/C122S (enzyme) VVGGTDADEGEWPWQVSLHALGQGHACGASLISPNWLVSAAHCYIDDRGFRYSDPTQWTAFLGLHDQSQRSAPGVQERRLKRIISHPFFNDSATFDYDIALLELEKPAEYSSMVRPISLPDASHVFPAGKAIWVTGWGHTQYGGTGALILQKGEIRVINQTTCENLLPQQITPRMMCVGFLSGGVDSCQGDSGGPLSSVEADGRIFQAGVVSWGDGCAQRNKPGVYTRLPLFRDWIKENTGV | 19.8 nM | – |
| MTSP-1 Q38H/I41S/D60bT/F60eS/Y60gW/D96K/F97G/ins97aV/T98P/C122S/G151H/Q175L/Q192D (enzyme) VVGGTDADEGEWPWQVSLHALGHGHSCGASLISPNWLVSAAHCYIDTRGSRWSDPTQWTAFLGLHDQSQRSAPGVQERRLKRIISHPFFNKGVPFDYDIALLELEKPAEYSSMVRPISLPDASHVFPAGKAIWVTGWGHTQYGGTHALILQKGEIRVINQTTCENLLPQLITPRMMCVGFLSGGVDSCDGDSGGPLSSVEADGRIFQAGVVSWGDGCAQRNKPGVYTRLPLFRDWIKENTGV | – | 18.3 nM |

Results, then the binder that gave them:

| EC50 hC3 cleavage | EC50 of hC3 cleavage | Binder |
| --- | --- | --- |
| 53.5 nM | – | MTSP-1 protease domain I41S/F97Q/F99L/C122S/Q192S (enzyme) VVGGTDADEGEWPWQVSLHALGQGHSCGASLISPNWLVSAAHCYIDDRGFRYSDPTQWTAFLGLHDQSQRSAPGVQERRLKRIISHPFFNDQTLDYDIALLELEKPAEYSSMVRPISLPDASHVFPAGKAIWVTGWGHTQYGGTGALILQKGEIRVINQTTCENLLPQQITPRMMCVGFLSGGVDSCSGDSGGPLSSVEADGRIFQAGVVSWGDGCAQRNKPGVYTRLPLFRDWIKENTGV |
| 247 nM | – | MTSP-1 protease domain I41T/Y60gL/N95D/D96F/F97S/F99L/C122S/Q175S/Q192A (enzyme) VVGGTDADEGEWPWQVSLHALGQGHTCGASLISPNWLVSAAHCYIDDRGFRLSDPTQWTAFLGLHDQSQRSAPGVQERRLKRIISHPFFDFSTLDYDIALLELEKPAEYSSMVRPISLPDASHVFPAGKAIWVTGWGHTQYGGTGALILQKGEIRVINQTTCENLLPQSITPRMMCVGFLSGGVDSCAGDSGGPLSSVEADGRIFQAGVVSWGDGCAQRNKPGVYTRLPLFRDWIKENTGV |
| 17.4 nM | – | MTSP-1 protease domain I41S/T98S/F99L/C122S/Q192A (enzyme) VVGGTDADEGEWPWQVSLHALGQGHSCGASLISPNWLVSAAHCYIDDRGFRYSDPTQWTAFLGLHDQSQRSAPGVQERRLKRIISHPFFNDFSLDYDIALLELEKPAEYSSMVRPISLPDASHVFPAGKAIWVTGWGHTQYGGTGALILQKGEIRVINQTTCENLLPQQITPRMMCVGFLSGGVDSCAGDSGGPLSSVEADGRIFQAGVVSWGDGCAQRNKPGVYTRLPLFRDWIKENTGV |
| 30.9 nM | – | MTSP-1 protease domain I41S/F97V/ins97aV/T98P/C122S (enzyme) VVGGTDADEGEWPWQVSLHALGQGHSCGASLISPNWLVSAAHCYIDDRGFRYSDPTQWTAFLGLHDQSQRSAPGVQERRLKRIISHPFFNDVVPFDYDIALLELEKPAEYSSMVRPISLPDASHVFPAGKAIWVTGWGHTQYGGTGALILQKGEIRVINQTTCENLLPQQITPRMMCVGFLSGGVDSCQGDSGGPLSSVEADGRIFQAGVVSWGDGCAQRNKPGVYTRLPLFRDWIKENTGV |
| 57.2 nM | – | MTSP-1 protease domain I41S/F97G/ins97aA/T98P/C122S/Q192A (enzyme) VVGGTDADEGEWPWQVSLHALGQGHSCGASLISPNWLVSAAHCYIDDRGFRYSDPTQWTAFLGLHDQSQRSAPGVQERRLKRIISHPFFNDGAPFDYDIALLELEKPAEYSSMVRPISLPDASHVFPAGKAIWVTGWGHTQYGGTGALILQKGEIRVINQTTCENLLPQQITPRMMCVGFLSGGVDSCAGDSGGPLSSVEADGRIFQAGVVSWGDGCAQRNKPGVYTRLPLFRDWIKENTGV |
| 19.1 nM | – | MTSP-1 protease domain Q38M/I41T/D96M/ins97aH/C122S/G151E (enzyme) VVGGTDADEGEWPWQVSLHALGMGHTCGASLISPNWLVSAAHCYIDDRGFRYSDPTQWTAFLGLHDQSQRSAPGVQERRLKRIISHPFFNMFHTFDYDIALLELEKPAEYSSMVRPISLPDASHVFPAGKAIWVTGWGHTQYGGTEALILQKGEIRVINQTTCENLLPQQITPRMMCVGFLSGGVDSCQGDSGGPLSSVEADGRIFQAGVVSWGDGCAQRNKPGVYTRLPLFRDWIKENTGV |
| 8.1 nM | – | MTSP-1 protease domain I41S/D60bY/ins97aV/T98N/C122S/Q192H (enzyme) VVGGTDADEGEWPWQVSLHALGQGHSCGASLISPNWLVSAAHCYIDYRGFRYSDPTQWTAFLGLHDQSQRSAPGVQERRLKRIISHPFFNDFVNFDYDIALLELEKPAEYSSMVRPISLPDASHVFPAGKAIWVTGWGHTQYGGTGALILQKGEIRVINQTTCENLLPQQITPRMMCVGFLSGGVDSCHGDSGGPLSSVEADGRIFQAGVVSWGDGCAQRNKPGVYTRLPLFRDWIKENTGV |
| 54.1 nM | – | MTSP-1 protease domain Q38H/I41T/D96R/ins97aG/C122S/G151S (enzyme) VVGGTDADEGEWPWQVSLHALGHGHTCGASLISPNWLVSAAHCYIDDRGFRYSDPTQWTAFLGLHDQSQRSAPGVQERRLKRIISHPFFNRFGTFDYDIALLELEKPAEYSSMVRPISLPDASHVFPAGKAIWVTGWGHTQYGGTSALILQKGEIRVINQTTCENLLPQQITPRMMCVGFLSGGVDSCQGDSGGPLSSVEADGRIFQAGVVSWGDGCAQRNKPGVYTRLPLFRDWIKENTGV |
| 5.24 nM | – | MTSP-1 protease domain I41S/Y59F/D60bY/ins97aV/C122S/Q192G (enzyme) VVGGTDADEGEWPWQVSLHALGQGHSCGASLISPNWLVSAAHCFIDYRGFRYSDPTQWTAFLGLHDQSQRSAPGVQERRLKRIISHPFFNDFVTFDYDIALLELEKPAEYSSMVRPISLPDASHVFPAGKAIWVTGWGHTQYGGTGALILQKGEIRVINQTTCENLLPQQITPRMMCVGFLSGGVDSCGGDSGGPLSSVEADGRIFQAGVVSWGDGCAQRNKPGVYTRLPLFRDWIKENTGV |
| 4.76 nM | – | MTSP-1 protease domain I41S/D60bY/ins97aV/A112V/C122S/Q192G/Q209L (enzyme) VVGGTDADEGEWPWQVSLHALGQGHSCGASLISPNWLVSAAHCYIDYRGFRYSDPTQWTAFLGLHDQSQRSAPGVQERRLKRIISHPFFNDFVTFDYDIALLELEKPVEYSSMVRPISLPDASHVFPAGKAIWVTGWGHTQYGGTGALILQKGEIRVINQTTCENLLPQQITPRMMCVGFLSGGVDSCGGDSGGPLSSVEADGRIFLAGVVSWGDGCAQRNKPGVYTRLPLFRDWIKENTGV |
